{
  "source": "the Human Domainome abundance scans (Beltran et al. 2025)",
  "parents": {"B1": {"name": "Ankyrin-3, residues 4094 to 4171; numbered along this chain, Q12955 (parent)", "chain": "MAIVADHLGLSWTELARELNFSVDEINQIRVENPNSLISQSFMLLKKWVTRDGKNATTDALTSVLTKINRIDIVTLLE"}},
  "note": "± gives the uncertainty stated by the source.",
  "data": [
    {"variants_of": "B1", "test": "abundance fitness (aPCA) (normalised: wild type 0, dead -1); higher = more abundant; growth selection in yeast, the domain comes from the species named", "details": "Homo sapiens", "values": [
      {"variant": "MAIVADHLGLSWTELARELNFSVDEINQIRVENPNSLISQSFMLLKKWVTRDGKNATTDALTSVLTKINRIDIPTLLE", "note": "[V74P]", "abundance fitness": "-0.86 ± 0.26"},
      {"variant": "MAIVAKHLGLSWTELARELNFSVDEINQIRVENPNSLISQSFMLLKKWVTRDGKNATTDALTSVLTKINRIDIVTLLE", "note": "[D6K]", "abundance fitness": "0.155 ± 0.038"},
      {"variant": "MAYVADHLGLSWTELARELNFSVDEINQIRVENPNSLISQSFMLLKKWVTRDGKNATTDALTSVLTKINRIDIVTLLE", "note": "[I3Y]", "abundance fitness": "-0.486 ± 0.16"},
      {"variant": "MAVVADHLGLSWTELARELNFSVDEINQIRVENPNSLISQSFMLLKKWVTRDGKNATTDALTSVLTKINRIDIVTLLE", "note": "[I3V]", "abundance fitness": "-0.05 ± 0.053"},
      {"variant": "MAIVADHLGLSWTELARILNFSVDEINQIRVENPNSLISQSFMLLKKWVTRDGKNATTDALTSVLTKINRIDIVTLLE", "note": "[E18I]", "abundance fitness": "-0.721 ± 0.22"},
      {"variant": "MAIVADHLGLSWTELARYLNFSVDEINQIRVENPNSLISQSFMLLKKWVTRDGKNATTDALTSVLTKINRIDIVTLLE", "note": "[E18Y]", "abundance fitness": "-0.605 ± 0.17"},
      {"variant": "MAIVADHLGLSWTELARELNFSVDEINQIRVENPNSLISQSFMLLKKWVTRDGKNATTDALTSVLTKINLIDIVTLLE", "note": "[R70L]", "abundance fitness": "-0.82 ± 0.13"},
      {"variant": "MAIVADHLGLSWTELARELNFSVDEINQIRVENPNSLISQSFMLLKKWVTRDGKNATTDALTSVLTKINRIDLVTLLE", "note": "[I73L]", "abundance fitness": "-0.148 ± 0.05"},
      {"variant": "MAIPADHLGLSWTELARELNFSVDEINQIRVENPNSLISQSFMLLKKWVTRDGKNATTDALTSVLTKINRIDIVTLLE", "note": "[V4P]", "abundance fitness": "-0.921 ± 0.15"},
      {"variant": "MAIVADHLGSSWTELARELNFSVDEINQIRVENPNSLISQSFMLLKKWVTRDGKNATTDALTSVLTKINRIDIVTLLE", "note": "[L10S]", "abundance fitness": "0.081 ± 0.053"},
      {"variant": "MAIVADHLGLSWLELARELNFSVDEINQIRVENPNSLISQSFMLLKKWVTRDGKNATTDALTSVLTKINRIDIVTLLE", "note": "[T13L]", "abundance fitness": "-0.104 ± 0.049"},
      {"variant": "MAIVADHLGLSWTELARELNFSVDEINQIRVENPNSLISQSFMLLKKWVTRDGKNATTDALTSVLTKINRISIVTLLE", "note": "[D72S]", "abundance fitness": "-0.855 ± 0.16"},
      {"variant": "MAIVADHLGLSWTELARELNFSVDEINQIRVENPNSLISQIFMLLKKWVTRDGKNATTDALTSVLTKINRIDIVTLLE", "note": "[S41I]", "abundance fitness": "-0.74 ± 0.28"},
      {"variant": "MAIVADHVGLSWTELARELNFSVDEINQIRVENPNSLISQSFMLLKKWVTRDGKNATTDALTSVLTKINRIDIVTLLE", "note": "[L8V]", "abundance fitness": "-0.769 ± 0.11"},
      {"variant": "MAIVADHQGLSWTELARELNFSVDEINQIRVENPNSLISQSFMLLKKWVTRDGKNATTDALTSVLTKINRIDIVTLLE", "note": "[L8Q]", "abundance fitness": "-0.755 ± 0.19"},
      {"variant": "MAIVADHLGLSWTELARELNFSADEINQIRVENPNSLISQSFMLLKKWVTRDGKNATTDALTSVLTKINRIDIVTLLE", "note": "[V23A]", "abundance fitness": "-0.12 ± 0.07"},
      {"variant": "MAIVADHLGLSWTELARELNFSVDEIPQIRVENPNSLISQSFMLLKKWVTRDGKNATTDALTSVLTKINRIDIVTLLE", "note": "[N27P]", "abundance fitness": "-0.926 ± 0.39"},
      {"variant": "MAIVADHLGLSWTELARELNFSVDEIEQIRVENPNSLISQSFMLLKKWVTRDGKNATTDALTSVLTKINRIDIVTLLE", "note": "[N27E]", "abundance fitness": "-0.191 ± 0.13"},
      {"variant": "MAIVADHLGLSWTELARELNFSVDEINQIRVENPNSLISQSFMLLKKWVTRDGKNATQDALTSVLTKINRIDIVTLLE", "note": "[T58Q]", "abundance fitness": "0.034 ± 0.11"},
      {"variant": "MAIVADHLGLSWTELARELNFSVDEINQIRVENPNSLISQSFMLLKKWVTRDGKNATPDALTSVLTKINRIDIVTLLE", "note": "[T58P]", "abundance fitness": "-0.195 ± 0.054"},
      {"variant": "MAIVADHLGLSWTELARELNFSVDEINQIRVENPNSLISQSFMLLKKWVTRDGKNATTDALQSVLTKINRIDIVTLLE", "note": "[T62Q]", "abundance fitness": "-0.201 ± 0.15"},
      {"variant": "MAIVADHLGLSWTELARELNFSVDEINQIRVENPNSLISQSIMLLKKWVTRDGKNATTDALTSVLTKINRIDIVTLLE", "note": "[F42I]", "abundance fitness": "-0.03 ± 0.14"},
      {"variant": "MAIVADHLGLSWTELARELNFSVDEINQIRVENPNSLISQSKMLLKKWVTRDGKNATTDALTSVLTKINRIDIVTLLE", "note": "[F42K]", "abundance fitness": "0.201 ± 0.093"},
      {"variant": "MAIVADHLGLSWTELARELNFSVDEINQIRVENPNSLISQSFMLLKKWVTRDGKNATTDALTQVLTKINRIDIVTLLE", "note": "[S63Q]", "abundance fitness": "-0.012 ± 0.079"},
      {"variant": "MAIVADHLGLSWTELARELNFSVDEINQIRVENPNDLISQSFMLLKKWVTRDGKNATTDALTSVLTKINRIDIVTLLE", "note": "[S36D]", "abundance fitness": "0.155 ± 0.11"},
      {"variant": "MAIVADHLGLSWTELARELNFSVDEINQIRVENPNSLISQSFMLLKKWVTRDGKNKTTDALTSVLTKINRIDIVTLLE", "note": "[A56K]", "abundance fitness": "-0.175 ± 0.21"},
      {"variant": "MAIVADHLGLSWTPLARELNFSVDEINQIRVENPNSLISQSFMLLKKWVTRDGKNATTDALTSVLTKINRIDIVTLLE", "note": "[E14P]", "abundance fitness": "-0.583 ± 0.09"},
      {"variant": "MAIVADHLGLSWTELARELNFSVDEINQIRVENPNSLISQSFMLHKKWVTRDGKNATTDALTSVLTKINRIDIVTLLE", "note": "[L45H]", "abundance fitness": "-0.449 ± 0.25"},
      {"variant": "MAIVADHLGLSWTELARELNFSVDEINQIRVECPNSLISQSFMLLKKWVTRDGKNATTDALTSVLTKINRIDIVTLLE", "note": "[N33C]", "abundance fitness": "0.034 ± 0.1"},
      {"variant": "MAIVADHLGLSWTELARELNFSVDEINQIRVENPNSLISQSFMLLKKWVTRDGKNATTDALTSVLTKINRIDIVTLKE", "note": "[L77K]", "abundance fitness": "-0.602 ± 0.22"},
      {"variant": "MAIVADHLGLSWTELARELNFSVDEINQIRVENPNSLISQSFMLLKKWVTRDGKNATTDTLTSVLTKINRIDIVTLLE", "note": "[A60T]", "abundance fitness": "-0.283 ± 0.14"},
      {"variant": "MAIVADHLGLSWTELARELNFSVDNINQIRVENPNSLISQSFMLLKKWVTRDGKNATTDALTSVLTKINRIDIVTLLE", "note": "[E25N]", "abundance fitness": "-0.63 ± 0.28"},
      {"variant": "MAIVADHLGLSWTELARELNFSVDWINQIRVENPNSLISQSFMLLKKWVTRDGKNATTDALTSVLTKINRIDIVTLLE", "note": "[E25W]", "abundance fitness": "-0.887 ± 0.19"},
      {"variant": "MAIVADHLGLSWTELARELNFSVDEINQIRVENPNSLISQSFMLLKKWVTRDGKNATTDALTSTLTKINRIDIVTLLE", "note": "[V64T]", "abundance fitness": "-0.087 ± 0.15"},
      {"variant": "MAIVADHLGLSWTELARELNFSVDEINQIRVENPNSSISQSFMLLKKWVTRDGKNATTDALTSVLTKINRIDIVTLLE", "note": "[L37S]", "abundance fitness": "-0.132 ± 0.064"}
    ]}
  ]
}
